Legend:
NLRX1 FL recombinant [1] = biological target: T1, NLRX1 FL recombinant (human, UniProt Q86UT6 1-975); assay: SPR
NLRX1 FL recombinant [2] = biological target: T1, NLRX1 FL recombinant; assay: pull-down
NLRC3 FL recombinant [3] = biological target: T2, NLRC3 FL recombinant (human, UniProt Q7RTR2 1-1065); assay: pull-down
T2 sequence: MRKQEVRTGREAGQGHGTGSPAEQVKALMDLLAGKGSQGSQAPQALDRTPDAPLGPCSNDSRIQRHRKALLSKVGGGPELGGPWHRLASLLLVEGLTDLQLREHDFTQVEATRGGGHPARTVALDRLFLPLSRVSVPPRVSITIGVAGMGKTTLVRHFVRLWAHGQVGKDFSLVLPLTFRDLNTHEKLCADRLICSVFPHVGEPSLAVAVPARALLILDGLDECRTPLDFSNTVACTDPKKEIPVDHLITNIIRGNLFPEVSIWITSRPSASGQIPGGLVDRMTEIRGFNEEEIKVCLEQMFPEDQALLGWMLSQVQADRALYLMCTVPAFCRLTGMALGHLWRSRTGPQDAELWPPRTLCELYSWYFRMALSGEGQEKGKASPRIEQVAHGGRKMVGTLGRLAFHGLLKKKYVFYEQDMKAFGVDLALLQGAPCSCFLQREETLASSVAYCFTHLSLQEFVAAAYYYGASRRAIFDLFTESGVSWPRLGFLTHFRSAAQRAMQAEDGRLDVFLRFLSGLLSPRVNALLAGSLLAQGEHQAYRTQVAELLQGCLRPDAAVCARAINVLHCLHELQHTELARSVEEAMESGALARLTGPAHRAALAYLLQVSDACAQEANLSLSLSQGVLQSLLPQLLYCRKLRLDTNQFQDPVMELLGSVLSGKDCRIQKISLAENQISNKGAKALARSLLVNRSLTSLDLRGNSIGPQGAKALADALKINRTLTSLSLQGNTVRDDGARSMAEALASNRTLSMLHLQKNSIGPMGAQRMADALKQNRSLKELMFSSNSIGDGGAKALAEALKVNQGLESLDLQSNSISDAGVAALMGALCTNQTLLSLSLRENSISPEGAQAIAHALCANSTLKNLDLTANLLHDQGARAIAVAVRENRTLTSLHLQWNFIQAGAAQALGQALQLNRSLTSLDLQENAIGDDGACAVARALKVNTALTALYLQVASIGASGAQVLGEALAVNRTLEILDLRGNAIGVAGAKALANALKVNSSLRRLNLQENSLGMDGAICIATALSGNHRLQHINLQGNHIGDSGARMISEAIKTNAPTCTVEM

STING 155-341 [4] = biological target: T3, STING 155-341 (human, UniProt Q86WV6 155-341); assay: SPR
NLRC3 FL recombinant [5] = biological target: T2, NLRC3 FL recombinant; assay: SPR
NLRX1 FL recombinant [6] = biological target: T1, NLRX1 FL recombinant; assay: EMSA
cGAS FL recombinant = cGAS FL recombinant (mouse, UniProt Q8C6L5 1-507); assay: EMSA
NLRC3 NBD recombinant = biological target: T4, NLRC3 NBD recombinant (human, UniProt Q7RTR2 139-460); assay: pull-down
T4 sequence: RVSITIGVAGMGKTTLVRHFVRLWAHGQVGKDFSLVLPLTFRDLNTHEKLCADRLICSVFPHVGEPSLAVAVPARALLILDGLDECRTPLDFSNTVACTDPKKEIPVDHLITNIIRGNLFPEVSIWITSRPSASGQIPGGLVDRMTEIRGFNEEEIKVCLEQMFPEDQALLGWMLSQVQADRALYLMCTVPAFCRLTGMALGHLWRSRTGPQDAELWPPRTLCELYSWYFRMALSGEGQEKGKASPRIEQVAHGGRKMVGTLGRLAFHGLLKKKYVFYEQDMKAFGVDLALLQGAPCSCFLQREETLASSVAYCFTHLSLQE

STING 155-341 [7] = biological target: T3, STING 155-341; assay: gel filtration

T1 sequence (Q86UT6 whole entry): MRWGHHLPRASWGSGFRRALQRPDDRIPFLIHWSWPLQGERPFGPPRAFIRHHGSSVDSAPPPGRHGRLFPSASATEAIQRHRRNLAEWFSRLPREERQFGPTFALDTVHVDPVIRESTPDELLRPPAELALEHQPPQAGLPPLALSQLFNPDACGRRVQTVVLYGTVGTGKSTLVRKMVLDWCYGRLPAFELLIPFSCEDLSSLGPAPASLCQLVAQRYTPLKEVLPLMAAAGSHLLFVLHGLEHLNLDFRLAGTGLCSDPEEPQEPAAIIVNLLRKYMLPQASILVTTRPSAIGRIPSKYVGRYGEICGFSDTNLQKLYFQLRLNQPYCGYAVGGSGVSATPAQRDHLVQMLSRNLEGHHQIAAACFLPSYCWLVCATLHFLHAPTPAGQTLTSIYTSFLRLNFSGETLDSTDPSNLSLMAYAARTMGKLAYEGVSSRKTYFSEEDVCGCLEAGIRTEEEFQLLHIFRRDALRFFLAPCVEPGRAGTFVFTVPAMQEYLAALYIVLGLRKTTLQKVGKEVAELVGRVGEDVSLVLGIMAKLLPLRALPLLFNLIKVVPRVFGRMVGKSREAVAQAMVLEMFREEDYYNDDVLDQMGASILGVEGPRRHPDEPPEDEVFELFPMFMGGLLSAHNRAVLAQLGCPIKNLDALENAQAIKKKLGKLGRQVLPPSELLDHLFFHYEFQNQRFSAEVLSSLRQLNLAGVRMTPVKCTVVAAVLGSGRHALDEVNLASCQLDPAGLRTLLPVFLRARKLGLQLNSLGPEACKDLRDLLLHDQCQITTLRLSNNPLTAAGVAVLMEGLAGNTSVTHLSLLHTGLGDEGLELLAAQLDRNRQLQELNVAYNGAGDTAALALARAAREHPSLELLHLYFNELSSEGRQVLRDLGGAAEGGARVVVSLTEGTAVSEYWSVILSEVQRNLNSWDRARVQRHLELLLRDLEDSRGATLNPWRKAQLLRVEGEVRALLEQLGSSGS
T3 sequence (Q86WV6 155-341): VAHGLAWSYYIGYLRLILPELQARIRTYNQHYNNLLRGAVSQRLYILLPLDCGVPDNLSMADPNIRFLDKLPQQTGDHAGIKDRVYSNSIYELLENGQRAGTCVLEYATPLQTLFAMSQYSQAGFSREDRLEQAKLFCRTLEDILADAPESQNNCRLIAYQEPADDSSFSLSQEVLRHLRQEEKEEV
Sequence of cGAS FL recombinant (Q8C6L5 whole entry): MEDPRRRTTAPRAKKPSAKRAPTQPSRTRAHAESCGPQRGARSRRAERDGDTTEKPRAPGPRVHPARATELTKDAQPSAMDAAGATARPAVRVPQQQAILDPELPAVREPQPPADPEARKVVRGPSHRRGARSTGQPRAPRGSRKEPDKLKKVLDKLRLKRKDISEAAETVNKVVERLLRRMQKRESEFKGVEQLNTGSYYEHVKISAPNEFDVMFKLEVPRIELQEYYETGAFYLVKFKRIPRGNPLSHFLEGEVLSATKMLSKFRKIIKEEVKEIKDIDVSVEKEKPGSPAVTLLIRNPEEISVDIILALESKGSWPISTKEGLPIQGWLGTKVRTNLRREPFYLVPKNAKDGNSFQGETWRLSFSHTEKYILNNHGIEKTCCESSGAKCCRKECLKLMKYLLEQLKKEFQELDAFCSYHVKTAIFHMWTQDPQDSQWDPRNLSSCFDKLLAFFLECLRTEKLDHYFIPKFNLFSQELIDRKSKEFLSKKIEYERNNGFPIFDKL

B1: HSV-60 dsRNA (dsRNA)
RNA 1: UAAGACACGAUGCGAUAAAAUCUGUUUGUAAAAUUUAUUAAGGGUACAAAUUGCCCUAGC
RNA 2: GCUAGGGCAAUUUGUACCCUUAAUAAAUUUUACAAACAGAUUUUAUCGCAUCGUGUCUUA
- binding result (NLRX1 FL recombinant [1]): binds

B2: HSV-15 dsDNA (dsDNA)
DNA 1: TAAGACACGATGCGA
DNA 2: TCGCATCGTGTCTTA
- binding result (NLRX1 FL recombinant [2]): no binding
- binding result (NLRC3 FL recombinant [3]): binds

B3: HSV-60 dsDNA (dsDNA)
DNA 1: TAAGACACGATGCGATAAAATCTGTTTGTAAAATTTATTAAGGGTACAAATTGCCCTAGC
DNA 2: GCTAGGGCAATTTGTACCCTTAATAAATTTTACAAACAGATTTTATCGCATCGTGTCTTA
- binding result (STING 155-341 [4]): no binding
- Kd (NLRC3 FL recombinant [5]): 3 nM
- binding result (NLRX1 FL recombinant [6]): no binding
- binding result (cGAS FL recombinant): binds
- binding result (NLRC3 NBD recombinant): no binding

B4: HSV-60 dsDNA unlabelled (dsDNA)
DNA 1: TAAGACACGATGCGATAAAATCTGTTTGTAAAATTTATTAAGGGTACAAATTGCCCTAGC
DNA 2: GCTAGGGCAATTTGTACCCTTAATAAATTTTACAAACAGATTTTATCGCATCGTGTCTTA
- binding result (STING 155-341 [7]): no binding

B5: HSV-60 DNA-RNA hybrid (DNA:RNA)
DNA: TAAGACACGATGCGATAAAATCTGTTTGTAAAATTTATTAAGGGTACAAATTGCCCTAGC
RNA: GCUAGGGCAAUUUGUACCCUUAAUAAAUUUUACAAACAGAUUUUAUCGCAUCGUGUCUUA
- binding result (NLRC3 FL recombinant [5]): binds

B6: HSV-60 ssDNA (ssDNA)
DNA: TAAGACACGATGCGATAAAATCTGTTTGTAAAATTTATTAAGGGTACAAATTGCCCTAGC
- binding result (NLRC3 FL recombinant [5]): binds

Reference: article PMC6469509
